Tests used:
[1] = substrate: COC[C@H]1O[C@@H](n2cnc3c(O)nc(N)nc32)[C@H](OC)[C@@H]1OC; test: (§1) Kinetic parameter in calf intestine adenosine deaminase.
[2] = substrate: COC[C@H]1O[C@@H](n2nnc3c(O)nc(N)nc32)[C@H](OC)[C@@H]1OC; test: as §1
[3] = substrate: COc1ncnc2c1ncn2[C@@H]1O[C@H](CO)[C@@H](O)[C@@H]1O; test: as §1
[4] = substrate: COc1ncnc2c1nnn2[C@@H]1O[C@H](CO)[C@@H](O)[C@H]1O; test: as §1
[5] = substrate: Nc1nc(F)nc2c1ncn2[C@@H]1O[C@H](CO)[C@@H](O)[C@H]1O; test: as §1
[6] = substrate: Nc1nc(F)nc2c1nnn2C1O[C@H](CO)[C@@H](O)[C@H]1O; test: as §1
[7] = substrate: Nc1nc(N)c2ncn([C@@H]3O[C@H](CO)[C@@H](O)[C@H]3O)c2n1; test: as §1
[8] = substrate: Nc1ncnc2c1nnn2[C@@H]1O[C@H](CO)[C@@H](O)[C@H]1O; test: as §1
[9] = substrate: Nc1ncnc2c1nnn2[C@H]1C[C@H](O)[C@@H](CO)O1; test: as §1

B1: Adenosine deaminase (Bos taurus), P56658 (protein)
chain: MAQTPAFNKPKVELHVHLDGAIKPETILYYGRKRGIALPADTPEELQNIIGMDKPLSLPEFLAKFDYYMPAIAGCREAVKRIAYEFVEMKAKDGVVYVEVRYSPHLLANSKVEPIPWNQAEGDLTPDEVVSLVNQGLQEGERDFGVKVRSILCCMRHQPSWSSEVVELCKKYREQTVVAIDLAGDETIEGSSLFPGHVKAYAEAVKSGVHRTVHAGEVGSANVVKEAVDTLKTERLGHGYHTLEDATLYNRLRQENMHFEVCPWSSYLTGAWKPDTEHPVVRFKNDQVNYSLNTDDPLIFKSTLDTDYQMTKNEMGFTEEEFKRLNINAAKSSFLPEDEKKELLDLLYKAYGMPSPASAEQCL
Km [1]: 42 µM
Km [2]: 22 µM
Km [3]: 50 µM
Km [4]: 140 µM
Km [5]: 81 µM
Km [6]: 250 µM
Km [7]: 33 µM
Km [8]: 250 µM
Km [9]: 220 µM

From ChEMBL document CHEMBL1122375, “Synthesis and biological evaluation of 2-fluoro-8-azaadenosine and related compounds” (J Med Chem, 1983)
